Assay results published in PMC4670726, “Systematic discovery of linear binding motifs targeting an ancient protein interaction surface on MAP kinases” (Molecular Systems Biology, 2015).
Ends that are not written are not given here.

Experiments:
[1] = biological target: T1, ERK2 (as used in the fluorescence polarization titrations) (human, UniProt P28482 1-360); experiment: fluorescence polarisation; competition: 50 nM N-terminally labeled reporter peptide mixed with MAPK at ~60–80% complex formation, increasing amounts of unlabeled synthetic test peptide added; 384-well plates, triplicates; Ki from a competition binding equation; conditions: both partners purified
T1 construct: ERK2; the FP methods say only 'MAPKs'
T1 sequence (P28482 whole entry): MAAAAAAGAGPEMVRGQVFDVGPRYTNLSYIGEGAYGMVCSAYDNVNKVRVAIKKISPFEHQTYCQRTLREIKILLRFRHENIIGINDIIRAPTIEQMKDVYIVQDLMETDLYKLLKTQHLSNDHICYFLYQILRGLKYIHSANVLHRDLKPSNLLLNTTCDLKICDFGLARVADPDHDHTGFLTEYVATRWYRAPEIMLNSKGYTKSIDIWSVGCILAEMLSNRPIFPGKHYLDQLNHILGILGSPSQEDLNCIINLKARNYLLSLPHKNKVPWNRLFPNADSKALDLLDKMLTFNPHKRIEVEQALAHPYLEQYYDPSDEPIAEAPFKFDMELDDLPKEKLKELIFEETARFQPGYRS

[2] = biological target: T2, p38α (as used in the fluorescence polarization titrations) (human, UniProt Q16539 1-360); experiment: as above; conditions: both partners purified
T2 construct: p38α; the FP methods say only 'MAPKs'
T2 sequence (Q16539 whole entry): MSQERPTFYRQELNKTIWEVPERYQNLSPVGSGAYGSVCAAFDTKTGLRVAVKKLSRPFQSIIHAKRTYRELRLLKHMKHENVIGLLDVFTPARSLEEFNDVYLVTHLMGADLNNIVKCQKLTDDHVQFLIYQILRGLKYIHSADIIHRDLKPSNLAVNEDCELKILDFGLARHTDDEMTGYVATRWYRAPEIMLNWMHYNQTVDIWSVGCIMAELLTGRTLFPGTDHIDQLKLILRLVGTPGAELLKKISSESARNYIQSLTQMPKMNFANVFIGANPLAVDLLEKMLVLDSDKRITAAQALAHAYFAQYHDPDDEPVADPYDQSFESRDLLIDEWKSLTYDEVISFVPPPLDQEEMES

| Binder | binding result [1] | binding result [2] |
| --- | --- | --- |
| PQLKPIESSILAQRRVRKLPSTTL (also: N-terminal label: carboxyfluorescein or carboxytetramethylrhodamine, docking peptide of RSK1; source: synthetic peptide) [pepRSK1, labeled reporter peptide] | binds | – |
| SRKPDLRVVIPPS (also: N-terminally labeled with carboxyfluorescein or carboxytetramethylrhodamine, docking peptide of MEF2A; source: synthetic peptide) [pepMEF2A, labeled reporter peptide] | – | binds |
| IKIKKIEDASNPLLLKRRKK (also: N-terminally labeled with carboxyfluorescein or carboxytetramethylrhodamine, docking peptide of MK2; source: synthetic peptide) [pepMK2, labeled reporter peptide] | – | binds |
